Numbered stars: 1 amine (or outer) side, 2 acyl side, 3 side chain; on linkers, the order of the positions; unused ones are H or OH. Square brackets hold non-standard residues; d marks the D form. Primed or numbered codes have the meaning given here. Azetidine3carboxylic = O=C(C1CN([*:1])C1)[*:2]; Izc = imidazolidine-2-carboxylic acid; Pic(3) = 3-piperidinecarboxylic acid; Arg(Me) = CNC(=N)NCCC[C@H](N)C(=O)O; Hyp = O=C(O)[C@@H]1C[C@@H](O)CN1; Pip = O=C(O)[C@@H]1CCCCN1; NMeA = CN[C@@H](C)C(=O)O; Thz = O=C(O)[C@@H]1CSCN1; dDap = NC[C@@H](N)C(=O)O; dNMeA = CN[C@H](C)C(=O)O; Aze = O=C(O)[C@@H]1CCN1; Dab = NCC[C@H](N)C(=O)O; 2Abz = Nc1ccccc1C(=O)O; Aib = CC(C)(N)C(=O)O; azaGly = NNC(=O)O; Sar = CNCC(=O)O

The chains are these.
B1: des(1)-Ac-[D-Tyr2,D-Ser3,Thr5,AzaGly7,Arg(Me)9,Trp10]MS10 (peptide)
peptide: Ac-[dY][dS]NTF[azaGly]L[Arg(Me)]W-NH2
SMILES: CNC(=N)NCCC[C@H](NC(=O)[C@H](CC(C)C)NC(=O)NNC(=O)[C@H](Cc1ccccc1)NC(=O)[C@@H](NC(=O)[C@H](CC(N)=O)NC(=O)[C@@H](CO)NC(=O)[C@@H](Cc1ccc(O)cc1)NC(C)=O)[C@@H](C)O)C(=O)N[C@@H](Cc1c[nH]c2ccccc12)C(N)=O
B2: des(1)-Ac-[D-Tyr2,Gly3,Thr5,AzaGly7,Arg(Me)9,Trp10]MS10 (peptide)
peptide: Ac-[dY]GNTF[azaGly]L[Arg(Me)]W-NH2
SMILES: CNC(=N)NCCC[C@H](NC(=O)[C@H](CC(C)C)NC(=O)NNC(=O)[C@H](Cc1ccccc1)NC(=O)[C@@H](NC(=O)[C@H](CC(N)=O)NC(=O)CNC(=O)[C@@H](Cc1ccc(O)cc1)NC(C)=O)[C@@H](C)O)C(=O)N[C@@H](Cc1c[nH]c2ccccc12)C(N)=O
B3: des(1)-Ac-[D-Tyr2,Abz(2)3,Thr5,AzaGly7,Arg(Me)9,Trp10]MS10 (peptide)
peptide: Ac-[dY][2Abz]NTF[azaGly]L[Arg(Me)]W-NH2
SMILES: CNC(=N)NCCC[C@H](NC(=O)[C@H](CC(C)C)NC(=O)NNC(=O)[C@H](Cc1ccccc1)NC(=O)[C@@H](NC(=O)[C@H](CC(N)=O)NC(=O)c1ccccc1NC(=O)[C@@H](Cc1ccc(O)cc1)NC(C)=O)[C@@H](C)O)C(=O)N[C@@H](Cc1c[nH]c2ccccc12)C(N)=O
B4: des(1)-Ac-[D-Tyr2,Aze(2)3,Thr5,AzaGly7,Arg(Me)9,Trp10]MS10 (peptide)
peptide: Ac-[dY][Aze]NTF[azaGly]L[Arg(Me)]W-NH2
SMILES: CNC(=N)NCCC[C@H](NC(=O)[C@H](CC(C)C)NC(=O)NNC(=O)[C@H](Cc1ccccc1)NC(=O)[C@@H](NC(=O)[C@H](CC(N)=O)NC(=O)[C@@H]1CCN1C(=O)[C@@H](Cc1ccc(O)cc1)NC(C)=O)[C@@H](C)O)C(=O)N[C@@H](Cc1c[nH]c2ccccc12)C(N)=O
B5: des(1)-Ac-[D-Tyr2,D-Dap3,Thr5,AzaGly7,Arg(Me)9,Trp10]MS10 (peptide)
peptide: Ac-[dY][dDap]NTF[azaGly]L[Arg(Me)]W-NH2
SMILES: CNC(=N)NCCC[C@H](NC(=O)[C@H](CC(C)C)NC(=O)NNC(=O)[C@H](Cc1ccccc1)NC(=O)[C@@H](NC(=O)[C@H](CC(N)=O)NC(=O)[C@@H](CN)NC(=O)[C@@H](Cc1ccc(O)cc1)NC(C)=O)[C@@H](C)O)C(=O)N[C@@H](Cc1c[nH]c2ccccc12)C(N)=O
B6: des(1)-Ac-[D-Tyr2,D-NMeAla3,Thr5,AzaGly7,Arg(Me)9,Trp10]MS10 (peptide)
peptide: Ac-[dY][dNMeA]NTF[azaGly]L[Arg(Me)]W-NH2
SMILES: CNC(=N)NCCC[C@H](NC(=O)[C@H](CC(C)C)NC(=O)NNC(=O)[C@H](Cc1ccccc1)NC(=O)[C@@H](NC(=O)[C@H](CC(N)=O)NC(=O)[C@@H](C)N(C)C(=O)[C@@H](Cc1ccc(O)cc1)NC(C)=O)[C@@H](C)O)C(=O)N[C@@H](Cc1c[nH]c2ccccc12)C(N)=O
B7: des(1-3)-Ac-[Thr5,AzaGly7,Arg(Me)9,Trp10]MS10 (peptide)
peptide: Ac-NTF[azaGly]L[Arg(Me)]W-NH2
SMILES: CNC(=N)NCCC[C@H](NC(=O)[C@H](CC(C)C)NC(=O)NNC(=O)[C@H](Cc1ccccc1)NC(=O)[C@@H](NC(=O)[C@H](CC(N)=O)NC(C)=O)[C@@H](C)O)C(=O)N[C@@H](Cc1c[nH]c2ccccc12)C(N)=O
B8: des(1)-Ac-[D-Tyr2,D-Gln3,Thr5,AzaGly7,Arg(Me)9,Trp10]MS10 (peptide)
peptide: Ac-[dY][dQ]NTF[azaGly]L[Arg(Me)]W-NH2
SMILES: CNC(=N)NCCC[C@H](NC(=O)[C@H](CC(C)C)NC(=O)NNC(=O)[C@H](Cc1ccccc1)NC(=O)[C@@H](NC(=O)[C@H](CC(N)=O)NC(=O)[C@@H](CCC(N)=O)NC(=O)[C@@H](Cc1ccc(O)cc1)NC(C)=O)[C@@H](C)O)C(=O)N[C@@H](Cc1c[nH]c2ccccc12)C(N)=O
B9: des(1)-Ac-[D-Tyr2,NMeAla3,Thr5,AzaGly7,Arg(Me)9,Trp10]MS10 (peptide)
peptide: Ac-[dY][NMeA]NTF[azaGly]L[Arg(Me)]W-NH2
SMILES: CNC(=N)NCCC[C@H](NC(=O)[C@H](CC(C)C)NC(=O)NNC(=O)[C@H](Cc1ccccc1)NC(=O)[C@@H](NC(=O)[C@H](CC(N)=O)NC(=O)[C@H](C)N(C)C(=O)[C@@H](Cc1ccc(O)cc1)NC(C)=O)[C@@H](C)O)C(=O)N[C@@H](Cc1c[nH]c2ccccc12)C(N)=O
B10: des(1)-Ac-[D-Tyr2,D-Trp3,Thr5,AzaGly7,D-Arg9,Trp10]MS10 (peptide)
peptide: Ac-[dY][dW]NTF[azaGly]L[dR]W-NH2
SMILES: CC(=O)N[C@H](Cc1ccc(O)cc1)C(=O)N[C@H](Cc1c[nH]c2ccccc12)C(=O)N[C@@H](CC(N)=O)C(=O)N[C@H](C(=O)N[C@@H](Cc1ccccc1)C(=O)NNC(=O)N[C@@H](CC(C)C)C(=O)N[C@H](CCCNC(=N)N)C(=O)N[C@@H](Cc1c[nH]c2ccccc12)C(N)=O)[C@@H](C)O
B11: des(1)-Ac-[D-Tyr2,D-Asp3,Thr5,AzaGly7,Arg(Me)9,Trp10]MS10 (peptide)
peptide: Ac-[dY][dD]NTF[azaGly]L[Arg(Me)]W-NH2
SMILES: CNC(=N)NCCC[C@H](NC(=O)[C@H](CC(C)C)NC(=O)NNC(=O)[C@H](Cc1ccccc1)NC(=O)[C@@H](NC(=O)[C@H](CC(N)=O)NC(=O)[C@@H](CC(=O)O)NC(=O)[C@@H](Cc1ccc(O)cc1)NC(C)=O)[C@@H](C)O)C(=O)N[C@@H](Cc1c[nH]c2ccccc12)C(N)=O
B12: des(1)-Ac-[D-Tyr2,Sar3,Thr5,AzaGly7,Arg(Me)9,Trp10]MS10 (peptide)
peptide: Ac-[dY][Sar]NTF[azaGly]L[Arg(Me)]W-NH2
SMILES: CNC(=N)NCCC[C@H](NC(=O)[C@H](CC(C)C)NC(=O)NNC(=O)[C@H](Cc1ccccc1)NC(=O)[C@@H](NC(=O)[C@H](CC(N)=O)NC(=O)CN(C)C(=O)[C@@H](Cc1ccc(O)cc1)NC(C)=O)[C@@H](C)O)C(=O)N[C@@H](Cc1c[nH]c2ccccc12)C(N)=O
B13: des(1)-Ac-[D-Tyr2,Thz3,Thr5,AzaGly7,Arg(Me)9,Trp10]MS10 (peptide)
peptide: Ac-[dY][Thz]NTF[azaGly]L[Arg(Me)]W-NH2
SMILES: CNC(=N)NCCC[C@H](NC(=O)[C@H](CC(C)C)NC(=O)NNC(=O)[C@H](Cc1ccccc1)NC(=O)[C@@H](NC(=O)[C@H](CC(N)=O)NC(=O)[C@@H]1CSCN1C(=O)[C@@H](Cc1ccc(O)cc1)NC(C)=O)[C@@H](C)O)C(=O)N[C@@H](Cc1c[nH]c2ccccc12)C(N)=O
B14: des(1)-Ac-[D-Tyr2,D-His3,Thr5,AzaGly7,Arg(Me)9,Trp10]MS10 (peptide)
peptide: Ac-[dY][dH]NTF[azaGly]L[Arg(Me)]W-NH2
SMILES: CNC(=N)NCCC[C@H](NC(=O)[C@H](CC(C)C)NC(=O)NNC(=O)[C@H](Cc1ccccc1)NC(=O)[C@@H](NC(=O)[C@H](CC(N)=O)NC(=O)[C@@H](Cc1c[nH]cn1)NC(=O)[C@@H](Cc1ccc(O)cc1)NC(C)=O)[C@@H](C)O)C(=O)N[C@@H](Cc1c[nH]c2ccccc12)C(N)=O
B15: des(1)-Ac-[D-Tyr2,Pic(2)3,Thr5,AzaGly7,Arg(Me)9,Trp10]MS10 (peptide)
peptide: Ac-[dY][Pip]NTF[azaGly]L[Arg(Me)]W-NH2
SMILES: CNC(=N)NCCC[C@H](NC(=O)[C@H](CC(C)C)NC(=O)NNC(=O)[C@H](Cc1ccccc1)NC(=O)[C@@H](NC(=O)[C@H](CC(N)=O)NC(=O)[C@@H]1CCCCN1C(=O)[C@@H](Cc1ccc(O)cc1)NC(C)=O)[C@@H](C)O)C(=O)N[C@@H](Cc1c[nH]c2ccccc12)C(N)=O
B16: des(1)-Ac-[D-Tyr2,Aze(3)3,Thr5,AzaGly7,Arg(Me)9,Trp10]MS10 (peptide)
peptide: Ac-[dY][Azetidine3carboxylic]NTF[azaGly]L[Arg(Me)]W-NH2
SMILES: CNC(=N)NCCC[C@H](NC(=O)[C@H](CC(C)C)NC(=O)NNC(=O)[C@H](Cc1ccccc1)NC(=O)[C@@H](NC(=O)[C@H](CC(N)=O)NC(=O)C1CN(C(=O)[C@@H](Cc2ccc(O)cc2)NC(C)=O)C1)[C@@H](C)O)C(=O)N[C@@H](Cc1c[nH]c2ccccc12)C(N)=O
B17: des(1)-Ac-[D-Tyr2,Aib3,Thr5,AzaGly7,Arg(Me)9,Trp10]MS10 (peptide)
peptide: Ac-[dY][Aib]NTF[azaGly]L[Arg(Me)]W-NH2
SMILES: CNC(=N)NCCC[C@H](NC(=O)[C@H](CC(C)C)NC(=O)NNC(=O)[C@H](Cc1ccccc1)NC(=O)[C@@H](NC(=O)[C@H](CC(N)=O)NC(=O)C(C)(C)NC(=O)[C@@H](Cc1ccc(O)cc1)NC(C)=O)[C@@H](C)O)C(=O)N[C@@H](Cc1c[nH]c2ccccc12)C(N)=O
B18: des(1)-Ac-[D-Tyr2,D-Trp3,Dab4,Thr5,AzaGly7,Arg(Me)9,Trp10]MS10 (peptide)
peptide: Ac-[dY][dW][Dab]TF[azaGly]L[Arg(Me)]W-NH2
SMILES: CNC(=N)NCCC[C@H](NC(=O)[C@H](CC(C)C)NC(=O)NNC(=O)[C@H](Cc1ccccc1)NC(=O)[C@@H](NC(=O)[C@H](CCN)NC(=O)[C@@H](Cc1c[nH]c2ccccc12)NC(=O)[C@@H](Cc1ccc(O)cc1)NC(C)=O)[C@@H](C)O)C(=O)N[C@@H](Cc1c[nH]c2ccccc12)C(N)=O

This assay deals with human OT7T175 (metastin receptor) (human) (UniProt Q969F8). Put plainly: cell-based or functional assay.
Sequence of human OT7T175 (metastin receptor) (human) (Q969F8 whole entry L364H): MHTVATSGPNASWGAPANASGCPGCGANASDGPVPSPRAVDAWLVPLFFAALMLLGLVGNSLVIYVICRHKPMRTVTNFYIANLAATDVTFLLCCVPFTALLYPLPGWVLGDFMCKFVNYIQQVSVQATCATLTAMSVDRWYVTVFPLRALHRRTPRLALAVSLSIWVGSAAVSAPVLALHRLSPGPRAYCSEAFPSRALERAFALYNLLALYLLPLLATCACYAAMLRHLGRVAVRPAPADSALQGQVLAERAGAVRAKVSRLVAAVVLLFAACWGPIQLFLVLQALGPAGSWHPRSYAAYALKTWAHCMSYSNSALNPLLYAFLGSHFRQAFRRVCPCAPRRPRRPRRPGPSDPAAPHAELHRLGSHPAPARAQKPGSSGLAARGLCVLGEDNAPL
Ac-[dY][Pic(3)]NTF[azaGly]L[Arg(Me)]W-NH2 [des(1)-Ac-[D-Tyr2,Pic(3)3,Thr5,AzaGly7,Arg(Me)9,Trp10]MS10]: the intracellular Ca ion level-increasing activity [specific activity to Metastin (1-54)] (relative to Metastin (1-54)) was found to be 2.2.
Consider Ac-[dY][Izc]NTF[azaGly]L[Arg(Me)]W-NH2 [des(1)-Ac-[D-Tyr2,Izc3,Thr5,AzaGly7,Arg(Me)9,Trp10]MS10], for which the intracellular Ca ion level-increasing activity [specific activity to Metastin (1-54)] (relative to Metastin (1-54)) turned out to be 2.3.
In turn, B1 showed an intracellular Ca ion level-increasing activity [specific activity to Metastin (1-54)] (relative to Metastin (1-54)) of 3.
As to B2, the intracellular Ca ion level-increasing activity [specific activity to Metastin (1-54)] (relative to Metastin (1-54)) turned out to be 3.1.
Take B3: the intracellular Ca ion level-increasing activity [specific activity to Metastin (1-54)] (relative to Metastin (1-54)) was 3.2.
Regarding B4, the intracellular Ca ion level-increasing activity [specific activity to Metastin (1-54)] (relative to Metastin (1-54)) came out at 0.8.
The molecule B5 displayed an intracellular Ca ion level-increasing activity [specific activity to Metastin (1-54)] (relative to Metastin (1-54)) of 2.4.
Molecule B6 came in with an intracellular Ca ion level-increasing activity [specific activity to Metastin (1-54)] (relative to Metastin (1-54)) of 3.2.
In turn, B7 registered an intracellular Ca ion level-increasing activity [specific activity to Metastin (1-54)] (relative to Metastin (1-54)) of 9.8.
Molecule Ac-[dY][Hyp]NTF[azaGly]L[Arg(Me)]W-NH2 [des(1)-Ac-[D-Tyr2,Hyp3,Thr5,AzaGly7,Arg(Me)9,Trp10]MS10] yielded an intracellular Ca ion level-increasing activity [specific activity to Metastin (1-54)] (relative to Metastin (1-54)) of 2.
For B8, the intracellular Ca ion level-increasing activity [specific activity to Metastin (1-54)] (relative to Metastin (1-54)) is 1.4.
In turn, B9 yielded an intracellular Ca ion level-increasing activity [specific activity to Metastin (1-54)] (relative to Metastin (1-54)) of 2.7.
The value for B10 was 12.8.
Molecule B11 showed an intracellular Ca ion level-increasing activity [specific activity to Metastin (1-54)] (relative to Metastin (1-54)) of 3.4.
Molecule B12 registered an intracellular Ca ion level-increasing activity [specific activity to Metastin (1-54)] (relative to Metastin (1-54)) of 8.8.
With B13 the figure was 1.4; with B14, 1.6.
With B15, the intracellular Ca ion level-increasing activity [specific activity to Metastin (1-54)] (relative to Metastin (1-54)) stood at 1.1.
The molecule B16 came in with an intracellular Ca ion level-increasing activity [specific activity to Metastin (1-54)] (relative to Metastin (1-54)) of 4.1.
The value for B17 was 1.5; that for B18 was 1.1.

Source of the values: US20090105152A1.
